First the molecules themselves.
B1: Hairpin Ribozyme (parent)
chain: GUCCUCUUUCACGUGCGCGUGAAAGAGAGAAGUGAACCAGAGAAACACACGUUGUGGUAUAUUACCUGGUA

In this data set the parent is B1. Briefly: self-cleavage, relative activity (ratio to wild type); higher = more cleavage; co-transcriptional.
GUCGUCUUUCACGUGCGCGUGAAAGAGAGAAGUGAACCAUAGAAACACACGUUGUGGUAUAUUACCUGGUA [C4G G40U]: the self-cleavage was 0.0761. As to GUCGUCUUUCACGUGCGCGUGAAAGAGAGAAGUGAACGAGAGAAACACACGUUGUGGUAUAUUACCUGGUA [C4G C38G], the self-cleavage was 0.104. As to GUCGUCUUUCACGUGCGCGUGAAAGAGAGAAGUGAACCAGAGAAACACACGUUGUGGUAUAUUACCUAGUA [C4G G68A], the self-cleavage worked out at 0.084. The figure for GUCGUCUUUCACGUGCGCGUGAAAGAGAGAAGUGAACCAGAGAAACACACGUUGUGUUAUAUUACCUGGUA [C4G G57U] is 0.151; for GUCGUCUUUCACGUGCGCGUGAAAGAGAGAAGUGAACCAGAGAAGCACACGUUGUGGUAUAUUACCUGGUA [C4G A45G] it is 0.274.

As to GUCGUCUUUCACGCGCGCGUGAAAGAGAGAAGUGAACCAGAGAAACACACGUUGUGGUAUAUUACCUGGUA [C4G U14C], the self-cleavage was found to be 0.125.

For the variant GUCGUCUUUAACGUGCGCGUGAAAGAGAGAAGUGAACCAGAGAAACACACGUUGUGGUAUAUUACCUGGUA [C4G C10A], the self-cleavage was found to be 0.12. The figure for GUCGUCUUUGACGUGCGCGUGAAAGAGAGAAGUGAACCAGAGAAACACACGUUGUGGUAUAUUACCUGGUA [C4G C10G] is 0.114; for GUCGUCUUUCAUGUGCGCGUGAAAGAGAGAAGUGAACCAGAGAAACACACGUUGUGGUAUAUUACCUGGUA [C4G C12U] it is 0.187. The figure for GUCGUCUUUCACGUGCGCGUGAAAGAGAGAAGUGAACCAGAGAAACACACGUUGUCGUAUAUUACCUGGUA [C4G G56C] is 0.111.

On to GUCGUCUUUCACGUUCGCGUGAAAGAGAGAAGUGAACCAGAGAAACACACGUUGUGGUAUAUUACCUGGUA [C4G G15U], for which the self-cleavage stood at 0.185. On to GUCGUCGUUCACGUGCGCGUGAAAGAGAGAAGUGAACCAGAGAAACACACGUUGUGGUAUAUUACCUGGUA [C4G U7G], for which the self-cleavage was determined as 0.144.

For GUCAUCUUUCACGUGCGCGUGAAAGAGAGAAGUGAACCAGAGAAACACACGUUUUGGUAUAUUACCUGGUA [C4A G54U], the self-cleavage turned out to be 0.118. Consider GUCGUCUUUCGCGUGCGCGUGAAAGAGAGAAGUGAACCAGAGAAACACACGUUGUGGUAUAUUACCUGGUA [C4G A11G], for which the self-cleavage stood at 0.272. The figure for GUCGUCUUUCACGUGCGCGUGAAAGAGAGAAGUGAACCAGAGAAACACACAUUGUGGUAUAUUACCUGGUA [C4G G51A] is 0.245; for GUCGUCUUUCACGUGCGCGUGAAAGAGAGAAGUGAACCAGAGAAACACACGUUGUGGUAUAUUCCCUGGUA [C4G A64C] it is 0.167.

In the case of GUCGUCUUUCACGUGCGCAUGAAAGAGAGAAGUGAACCAGAGAAACACACGUUGUGGUAUAUUACCUGGUA [C4G G19A], the self-cleavage amounted to 0.143. The figure for GUCGUCUUUCACGUGCGCUUGAAAGAGAGAAGUGAACCAGAGAAACACACGUUGUGGUAUAUUACCUGGUA [C4G G19U] is 0.225. The figure for GUCGUCUUUCACGUGCGCGUGAAAGAGAAAAGUGAACCAGAGAAACACACGUUGUGGUAUAUUACCUGGUA [C4G G29A] is 0.0497; for GUCGUCUUUCACGUGCGCGUGAAAGAGAGAAGUGAACCAGAGAAACACAUGUUGUGGUAUAUUACCUGGUA [C4G C50U] it is 0.154. The figure for GUCAUCUUUCACGUGCGCGUGAAAGAGAGAAGUGAACCAGAGAAACACACGUCGUGGUAUAUUACCUGGUA [C4A U53C] is 0.206; for GUCAUCUUUCACGUGCGCGUGAAAGAGAGAAGUGAACCAGAGAAACACACGUAGUGGUAUAUUACCUGGUA [C4A U53A] it is 0.363. Regarding GUCAUCUUUCACGUGCGCGUGAAAGAGAGAAGUGAACCAGAGAAACACACGUUGUAGUAUAUUACCUGGUA [C4A G56A], the self-cleavage stood at 0.114. Regarding GUCAUCUUUCACGUGCGCGUGAAAGAGAGAAGUGAACCAGAGAAACACACGUUGUGGUAUAGUACCUGGUA [C4A U62G], the self-cleavage worked out at 0.1. The figure for GUCAUCUUUCACGUGCGCGUGAAAGAGAGAAGUGAACCAGAGAAACACACGUUGUGAUAUAUUACCUGGUA [C4A G57A] is 0.117. As for GUCAUCUUUCACGUGCGCGUGAAAGAGAGAAGUGAACCAGAGAAACACACGUUGUGCUAUAUUACCUGGUA [C4A G57C], the self-cleavage turned out to be 0.156.

For GUCGCCUUUCACGUGCGCGUGAAAGAGAGAAGUGAACCAGAGAAACACACGUUGUGGUAUAUUACCUGGUA [C4G U5C], the self-cleavage turned out to be 0.112. For GUCAUCUUACACGUGCGCGUGAAAGAGAGAAGUGAACCAGAGAAACACACGUUGUGGUAUAUUACCUGGUA [C4A U9A], the self-cleavage turned out to be 0.233.

Take GUCACCUUUCACGUGCGCGUGAAAGAGAGAAGUGAACCAGAGAAACACACGUUGUGGUAUAUUACCUGGUA [C4A U5C]: the self-cleavage came out at 0.23.

As to GUCAGCUUUCACGUGCGCGUGAAAGAGAGAAGUGAACCAGAGAAACACACGUUGUGGUAUAUUACCUGGUA [C4A U5G], the self-cleavage worked out at 0.109.

As to GUCGUCUUUCACGUGCGCGUGAAAGAGCGAAGUGAACCAGAGAAACACACGUUGUGGUAUAUUACCUGGUA [C4G A28C], the self-cleavage was determined as 0.172. With GUCGUCUUUCACGUGCGCGUGAAAGGGAGAAGUGAACCAGAGAAACACACGUUGUGGUAUAUUACCUGGUA [C4G A26G], the self-cleavage turned out to be 0.16. The figure for GUCGUCUUUCACGUGCGCGUGAAAGAGAGAAGUGAACCAGAGAAACACACGUUGUGGUAUAUUACGUGGUA [C4G C66G] is 0.209; for GUCGUCUUUCACGUGCGCGUCAAAGAGAGAAGUGAACCAGAGAAACACACGUUGUGGUAUAUUACCUGGUA [C4G G21C] it is 0.231; for GUCGUCUUUCACGUGCGCGUUAAAGAGAGAAGUGAACCAGAGAAACACACGUUGUGGUAUAUUACCUGGUA [C4G G21U] it is 0.123. The figure for GUCAUCUUUCACGUGCGCGUGAAAGAGAGAAGUGAACCAGAGAAACACACGUUGCGGUAUAUUACCUGGUA [C4A U55C] is 0.0693; for GUCAUCUUUCACGUGCGCGUGAAAGAGAGAAGUGAACCAGAGAAACACACGUUGAGGUAUAUUACCUGGUA [C4A U55A] it is 0.163; for GUCAUCUGUCACGUGCGCGUGAAAGAGAGAAGUGAACCAGAGAAACACACGUUGUGGUAUAUUACCUGGUA [C4A U8G] it is 0.0842.

Values taken from the RNAGym collection of RNA variant scans (doi:10.7554/elife.80360).
